Literature values in paper PMC4740375.
pKd: −log10 of the molar value. Like-named read-outs stand apart in the source and are kept apart here.

What was measured:
CD28 (Homo sapiens) [1] = target: CD28 (Homo sapiens) (UniProt P10747)
CD28 (Homo sapiens) [2] = target: CD28 (Homo sapiens) (UniProt P10747); remark: listed apart in the source

| Substance | pKd (CD28 (Homo sapiens) [1]) | pKd (CD28 (Homo sapiens) [2]) |
| --- | --- | --- |
| CD86 (from UniProt P42081) | 4.70 |  |
| CD80 (from UniProt P33681) |  | 5.40 |
